# Data: the supplement of paper PMC9112550, “Optimization of the antimicrobial peptide Bac7 by deep mutational scanning” (BMC Biology, 2022)
# Tested on: Escherichia coli TOP10
# Test: shrunken log2 fold change of peptide-encoding DNA abundance (4.5 h post-induction vs induction); higher = less antimicrobial activity (less host growth inhibition)
# Conditions: time post-induction: 4.5 h; library: site-saturation at positions 5, 18, 19, 20
# 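Note: peptides expressed intracellularly from a pBAD plasmid library in pooled LB shake-flask culture, induced with 0.3% L-arabinose, DNA abundance read by NGS, three biological replicates, DESeq2 with apeglm shrinkage.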
row,Sequence,shrunken log2 fold change
1,RRIRDRPPRLPRPRPRPPKRPRP,-0.0222
2,RRIRCRPPRLPRPRPRPFVLPRP,-0.469
3,RRIRQRPPRLPRPRPRPWNKPRP,-0.34
4,RRIRYRPPRLPRPRPRPKQMPRP,0.0213
5,RRIRLRPPRLPRPRPRPVITPRP,-0.372
6,RRIRKRPPRLPRPRPRPRDDPRP,0.365
7,RRIRNRPPRLPRPRPRPPPSPRP,1
8,RRIRARPPRLPRPRPRPMSEPRP,0.337
9,RRIRDRPPRLPRPRPRPGAEPRP,1.08
10,RRIRQRPPRLPRPRPRPPEWPRP,-0.0462
11,RRIRVRPPRLPRPRPRPWIPPRP,-0.513
12,RRIRLRPPRLPRPRPRPPSLPRP,0.0267
13,RRIRYRPPRLPRPRPRPNSEPRP,-0.589
14,RRIRGRPPRLPRPRPRPEVNPRP,1.62
15,RRIRNRPPRLPRPRPRPWNQPRP,-0.0135
16,RRIRQRPPRLPRPRPRPAMSPRP,0.322
17,RRIRDRPPRLPRPRPRPQWNPRP,-0.37
18,RRIRERPPRLPRPRPRPWPDPRP,-0.0169
19,RRIRNRPPRLPRPRPRPMLGPRP,0.0259
20,RRIRDRPPRLPRPRPRPGTDPRP,0.341
21,RRIRNRPPRLPRPRPRPKLKPRP,0.2
22,RRIRTRPPRLPRPRPRPPFYPRP,-0.0308

row,Sequence,shrunken log2 fold change
1,RRIRARPPRLPRPRPRPKQGPRP,0.373
2,RRIRYRPPRLPRPRPRPWQPPRP,-0.274
3,RRIRHRPPRLPRPRPRPDAEPRP,0.205
4,RRIRRRPPRLPRPRPRPNNSPRP,-0.356
5,RRIRMRPPRLPRPRPRPCDTPRP,0.13
6,RRIRLRPPRLPRPRPRPPGRPRP,0.66
7,RRIRCRPPRLPRPRPRPSEHPRP,-0.236
8,RRIRSRPPRLPRPRPRPDYEPRP,-0.221
9,RRIRARPPRLPRPRPRPSVTPRP,0.0595
10,RRIRFRPPRLPRPRPRPMPNPRP,0.0592
11,RRIRARPPRLPRPRPRPVAGPRP,0.35
12,RRIRRRPPRLPRPRPRPYIMPRP,-0.733
13,RRIRRRPPRLPRPRPRPNIIPRP,-0.0888
14,RRIRQRPPRLPRPRPRPIAVPRP,-0.038
15,RRIRFRPPRLPRPRPRPTRWPRP,0.117
16,RRIRMRPPRLPRPRPRPQLCPRP,0.237
17,RRIRIRPPRLPRPRPRPYTWPRP,-0.891
18,RRIRNRPPRLPRPRPRPCGTPRP,-0.139
19,RRIRVRPPRLPRPRPRPWESPRP,0.0528
20,RRIRRRPPRLPRPRPRPKVCPRP,0.0559
21,RRIRSRPPRLPRPRPRPPQPPRP,0.432
22,RRIRCRPPRLPRPRPRPLGWPRP,0.506

row,Sequence,shrunken log2 fold change
1,RRIRYRPPRLPRPRPRPPAEPRP,0.569
2,RRIRGRPPRLPRPRPRPPVFPRP,0.647
3,RRIRYRPPRLPRPRPRPERKPRP,-0.109
4,RRIRMRPPRLPRPRPRPGIHPRP,0.142
5,RRIRLRPPRLPRPRPRPCDGPRP,-0.181
6,RRIRARPPRLPRPRPRPVPDPRP,0.493
7,RRIRYRPPRLPRPRPRPDSRPRP,-0.0156
8,RRIRARPPRLPRPRPRPAKIPRP,0.321
9,RRIRKRPPRLPRPRPRPRFFPRP,0.282
10,RRIRSRPPRLPRPRPRPRHRPRP,0.121
11,RRIRFRPPRLPRPRPRPLIKPRP,-0.31
12,RRIRTRPPRLPRPRPRPTHRPRP,-0.185
13,RRIRIRPPRLPRPRPRPIGKPRP,-0.13
14,RRIRIRPPRLPRPRPRPQTPPRP,-0.0927
15,RRIRPRPPRLPRPRPRPTPVPRP,0.379
16,RRIRQRPPRLPRPRPRPDPIPRP,-0.0263
17,RRIRARPPRLPRPRPRPCYMPRP,-0.0886
18,RRIRMRPPRLPRPRPRPQHFPRP,0.00913
19,RRIRWRPPRLPRPRPRPWYQPRP,-0.179
20,RRIRPRPPRLPRPRPRPESWPRP,1.54
21,RRIRPRPPRLPRPRPRPPVMPRP,0.303
22,RRIRQRPPRLPRPRPRPTFRPRP,-0.232

row,Sequence,shrunken log2 fold change
1,RRIRKRPPRLPRPRPRPEWDPRP,0.12
2,RRIRDRPPRLPRPRPRPCCFPRP,0.395
3,RRIRCRPPRLPRPRPRPFHFPRP,-0.954
4,RRIRTRPPRLPRPRPRPEANPRP,-0.0399
5,RRIRSRPPRLPRPRPRPWVNPRP,-0.0336
6,RRIRVRPPRLPRPRPRPFVMPRP,0.0296
7,RRIRARPPRLPRPRPRPVDTPRP,0.186
8,RRIRKRPPRLPRPRPRPSSCPRP,0.31
9,RRIRCRPPRLPRPRPRPRVMPRP,0.278
10,RRIRWRPPRLPRPRPRPSCTPRP,-0.11
11,RRIRYRPPRLPRPRPRPHQGPRP,-0.142
12,RRIRPRPPRLPRPRPRPFIPPRP,-0.266
13,RRIRTRPPRLPRPRPRPIDHPRP,-0.263
14,RRIRERPPRLPRPRPRPDQFPRP,-0.154
15,RRIRQRPPRLPRPRPRPQSHPRP,-0.309
16,RRIRPRPPRLPRPRPRPGWAPRP,0.623
17,RRIRRRPPRLPRPRPRPPYYPRP,0.108
18,RRIRGRPPRLPRPRPRPIAWPRP,1.05
19,RRIRCRPPRLPRPRPRPYSEPRP,-0.766
20,RRIRGRPPRLPRPRPRPTNTPRP,0.676
21,RRIRERPPRLPRPRPRPIKLPRP,-0.481
22,RRIRFRPPRLPRPRPRPVQNPRP,0.0293

row,Sequence,shrunken log2 fold change
1,RRIRCRPPRLPRPRPRPFFCPRP,-0.132
2,RRIRSRPPRLPRPRPRPVNAPRP,0.319
3,RRIRKRPPRLPRPRPRPYARPRP,-0.0148
4,RRIRSRPPRLPRPRPRPAPWPRP,0.528
5,RRIRRRPPRLPRPRPRPELTPRP,-0.0257
6,RRIRDRPPRLPRPRPRPKYQPRP,-0.452
7,RRIRKRPPRLPRPRPRPESPPRP,0.188
8,RRIRQRPPRLPRPRPRPRSLPRP,-0.0177
9,RRIRPRPPRLPRPRPRPNMCPRP,-0.0958
10,RRIRYRPPRLPRPRPRPMIIPRP,-0.138
11,RRIRNRPPRLPRPRPRPIGYPRP,0.103
12,RRIRQRPPRLPRPRPRPRLRPRP,0.44
13,RRIRDRPPRLPRPRPRPTGSPRP,0.0325
14,RRIRHRPPRLPRPRPRPCSVPRP,-0.00861
15,RRIRLRPPRLPRPRPRPILPPRP,-0.0368
16,RRIRYRPPRLPRPRPRPHTYPRP,-0.189
17,RRIRWRPPRLPRPRPRPGVRPRP,0.304
18,RRIRPRPPRLPRPRPRPAYYPRP,-0.0697
19,RRIRSRPPRLPRPRPRPSGIPRP,-0.169
20,RRIRFRPPRLPRPRPRPKKSPRP,0.158
21,RRIRWRPPRLPRPRPRPCQVPRP,-0.0191
